# Reference: paper PMC5025757, “Sequences flanking the core-binding site modulate glucocorticoid receptor structure and activity”
# B1: A-Cgt-T EMSA (dsDNA)
# DNA 1: ACCAAGAACATTTTGTACGTCTC
# DNA 2: GAGACGTACAAAATGTTCTTGGT
# B2: G-Cgt-C EMSA (dsDNA)
# DNA 1: ACCGAGAACATTTTGTACGCCTC
# DNA 2: GAGGCGTACAAAATGTTCTCGGT
# B3: Cgt A-C NMR (dsDNA)
# DNA 1: GCCAAGAACATTTTGTACGCCTCG
# DNA 2: CGAGGCGTACAAAATGTTCTTGGC
# B4: Cgt A-T NMR (dsDNA)
# DNA 1: GCCAAGAACATTTTGTACGTCTCG
# DNA 2: CGAGACGTACAAAATGTTCTTGGC
# B5: Cgt G-C NMR (dsDNA)
# DNA 1: GCCGAGAACATTTTGTACGCCTCG
# DNA 2: CGAGGCGTACAAAATGTTCTCGGC
# B6: A-Sgk-T EMSA (dsDNA)
# DNA 1: ACCAAGAACATTTTGTCCGTCTC
# DNA 2: GAGACGGACAAAATGTTCTTGGT
# B7: G-Sgk-C EMSA (dsDNA)
# DNA 1: ACCGAGAACATTTTGTCCGCCTC
# DNA 2: GAGGCGGACAAAATGTTCTCGGT
# Columns and labels:
# [1] = molecular target: T1, GR DBD wild type (rat, UniProt P06536 440-525); assay: EMSA; value only in figure; similar Kd for A/T and G/C flanks; EMSA: 20 mM Tris pH 7.5, 2 mM MgCl2, 1 mM EDTA, 10% glycerol, 0.3 mg/ml BSA, 4 mM DTT, 0.05 ug/ul dIdC, 1.25 nM DNA, 30 min; NMR: 20 mM Na phosphate, 100 mM NaCl, 1 mM DTT, pH 6.7, 5% D2O, imino titration at 25 C; settings: protein: recombinant; chain copies: 2; label: Cy5 5' of strand 1; blunt
# T1 sequence (P06536 440-525): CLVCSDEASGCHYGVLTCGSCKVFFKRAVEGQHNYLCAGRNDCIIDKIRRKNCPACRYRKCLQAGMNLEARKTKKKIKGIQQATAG
# [2] = molecular target: GR DBD A477T (dim mutant) (rat, UniProt P06536 440-525, A477T); assay: EMSA; affinity lower than wild type; EMSA: 20 mM Tris pH 7.5, 2 mM MgCl2, 1 mM EDTA, 10% glycerol, 0.3 mg/ml BSA, 4 mM DTT, 0.05 ug/ul dIdC, 1.25 nM DNA, 30 min; NMR: 20 mM Na phosphate, 100 mM NaCl, 1 mM DTT, pH 6.7, 5% D2O, imino titration at 25 C; settings: protein: recombinant; chain copies: 2; label: Cy5 5' of strand 1; blunt
# Chain of GR DBD A477T (dim mutant) (P06536 440-525 A477T): as the sequence (P06536 440-525) above, with A38T counted along it
# [3] = molecular target: T1, GR DBD wild type; assay: EMSA; value only in figure; slightly higher affinity than A/T; EMSA: 20 mM Tris pH 7.5, 2 mM MgCl2, 1 mM EDTA, 10% glycerol, 0.3 mg/ml BSA, 4 mM DTT, 0.05 ug/ul dIdC, 1.25 nM DNA, 30 min; NMR: 20 mM Na phosphate, 100 mM NaCl, 1 mM DTT, pH 6.7, 5% D2O, imino titration at 25 C; settings: protein: recombinant; chain copies: 2; label: Cy5 5' of strand 1; blunt
# [4] = molecular target: T1, GR DBD wild type; assay: NMR (15N-HSQC); EMSA: 20 mM Tris pH 7.5, 2 mM MgCl2, 1 mM EDTA, 10% glycerol, 0.3 mg/ml BSA, 4 mM DTT, 0.05 ug/ul dIdC, 1.25 nM DNA, 30 min; NMR: 20 mM Na phosphate, 100 mM NaCl, 1 mM DTT, pH 6.7, 5% D2O, imino titration at 25 C; settings: protein: recombinant; chain copies: 2; blunt
# [5] = molecular target: T1, GR DBD wild type; assay: NMR (1D imino proton titration); G46 more broadened than with G/C; 25 C; EMSA: 20 mM Tris pH 7.5, 2 mM MgCl2, 1 mM EDTA, 10% glycerol, 0.3 mg/ml BSA, 4 mM DTT, 0.05 ug/ul dIdC, 1.25 nM DNA, 30 min; NMR: 20 mM Na phosphate, 100 mM NaCl, 1 mM DTT, pH 6.7, 5% D2O, imino titration at 25 C; settings: protein: recombinant; chain copies: 2; blunt
# [6] = molecular target: T1, GR DBD wild type; assay: NMR (1D imino proton titration); 25 C; EMSA: 20 mM Tris pH 7.5, 2 mM MgCl2, 1 mM EDTA, 10% glycerol, 0.3 mg/ml BSA, 4 mM DTT, 0.05 ug/ul dIdC, 1.25 nM DNA, 30 min; NMR: 20 mM Na phosphate, 100 mM NaCl, 1 mM DTT, pH 6.7, 5% D2O, imino titration at 25 C; settings: protein: recombinant; chain copies: 2; blunt
binder,measurement,setting,value
B1,binding result,[1],binds
same,Kd,[2],3.1 ± 0.4 µM
B2,binding result,[3],binds
same,Kd,[2],3.5 ± 1.1 µM
B3,binding result,[4],binds
B4,binding result,[5],binds
B5,binding result,[6],binds
B6,binding result,[1],binds
B7,binding result,[1],binds
